According to patent US20200332015A1 (NAMAB THERAPEUTICS, published 2020):

T1: mouse Fc-tagged mouse CD137 (R&D Systems, cat. 937-4B-050) (mouse, UniProt P20334 24-187)
T1 construct: also called mouse CD137-Fc chimeric protein
T1 sequence (looked up): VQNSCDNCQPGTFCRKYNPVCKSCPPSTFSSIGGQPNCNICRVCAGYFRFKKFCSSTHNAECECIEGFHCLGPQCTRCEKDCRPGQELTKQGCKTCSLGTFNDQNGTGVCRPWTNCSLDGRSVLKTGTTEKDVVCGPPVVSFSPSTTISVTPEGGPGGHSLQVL


How the values were obtained:
Experiment in all cases: SPR T200, antigen-Fc captured, molecule as analyte
[1] = molecular target: human PDL1-Fc chimeric protein (human, UniProt Q9NZQ7 19-238, limits assumed)
Procedure: (§1) Affinity to PDL1 of the different species was determined by SPR measurements using a Biacore T200 device (GE Healthcare). An antibody specific for the Fc region of human IgGs was immobilized on a sensor chip (CM5 sensor chip, GE Healthcare) by amine-coupling. For all formats, with the exception of the Fc containing Morrison formats, PDL1-Fc chimeric protein from different species were captured by the immobilized antibody. Three-fold serial dilutions of the molecules specific for PDL1 (0.12-90 nM) were injected into the flow cells for three minutes and dissociation was monitored for 10 minutes. After each injection cycle, surfaces were regenerated with one injection of a 3 M MgCl₂ solution. The apparent dissociation (kd) and association (kₐ) rate constants and the apparent dissociation equilibrium constant (KD) were calculated using one-to-one Langmuir binding model. Affinity to CD137 of the different species was determined using the identical setup as for PDL1 with the exception that CD137-Fc chimeric proteins from different species were captured by the immobilized antibody.

[2] = molecular target: T2, Fc tagged human CD137 (R&D Systems, cat. 838-4B-100) (human, UniProt Q07011 24-186)
T2 construct: also called CD137 Fc chimera; human CD137-Fc chimeric protein
Procedure: as §1

[3] = molecular target: T1, mouse Fc-tagged mouse CD137 (R&D …)
Procedure: as §1

Kd [1]	koff [1]	kon [1]	Kd [2]	koff [2]	kon [2]	Kd [3]	koff [3]	kon [3]	Binder
0.028 nM	7.6e-05 s⁻¹	2.8e+06 M⁻¹ s⁻¹	3.4 nM	0.00084 s⁻¹	250000 M⁻¹ s⁻¹	420 nM	0.19 s⁻¹	450000 M⁻¹ s⁻¹	PRO1134 (38-02-A04 sc01 scDb-i/33_03_G02 sc07 GL VH3 scDb-o) (bispecific antibody, scDb) DIQMTQSPSSLSASVGDAVTITCQASQSINDYLAWYQQKPGKSPKLLIYKASTLASGVPSRFSGSGSGTDFTLTISSLQPEDFATYYCQQGYIITDIDNVFGTGTKVTVLGGGGGSQVQLQESGPGLVKPSETLSLTCKVSGFSFSNSYWICWIRQPPGKGLEWIGCTFVGSSDSTYYANWAKGRVTISVDSSKNQFSLKLSSVTAADTAVYYCARHPSDAVYGYANNLWGQGTLVTVSSGGGGSGGGGSGGGGSGGGGSIQMTQSPSSLSASVGDRVTITCQASQSINNVLAWYQQKPGKAPKLLIYRASTLASGVPSRFSGSGSGTDFTLTISSLQPEDFATYYCQSSYGNYGDFGTGTKVTVLGGGGGSEVQLVESGGGLVQPGGSLRLSCAASGFSFSSGYDMCWVRQAPGKGLEWVGCVVAGSVDITYYASWAKGRFTISRDNSKNTVYLQMNSLRAEDTATYYCARKDAYSDAFNLWGPGTLVTVSS
0.067 nM	0.00011 s⁻¹	1.7e+06 M⁻¹ s⁻¹	3.7 nM	0.00075 s⁻¹	200000 M⁻¹ s⁻¹	510 nM	0.27 s⁻¹	540000 M⁻¹ s⁻¹	PRO1125 (38-02-A04 scDb-i/33_03_G02 sc02 IF scDb-o) (bispecific antibody, scDb) DIQMTQSPSSLSASVGDRVTITCQASQSINDYLAWYQQKPGKSPKLLIYKASTLASGVPSRFSGSGSGTDFTLTISSLQPEDFATYYCQQGYIITDIDNVFGTGTKVTVLGGGGGSQVQLQESGPGLVKPSETLSLTCKVSGFSFSNSYWICWIRQPPGKGLEWIGCTFVGSSDSTYYANWAKGRVTISVDSSKNQFSLKLSSVTAADTAVYYCARHPSDAVYGYANNLWGQGTLVTVSSGGGGSGGGGSGGGGSGGGGSIQMTQSPSSLSASVGDRVTITCQASQSINNVLAWYQQKPGKAPKLLIYRASTLASGVPSRFSGSGSGTDFTLTISSLQPEDFATYYCQSSYGNYGDFGTGTKVTVLGGGGGSQVQLQESGPGLVKPSETLSLTCKVSGFSFSSGYDMCWVRQPPGKGLEWIACVVAGSVDITYYASWAKGRVTISVDSSKNQFSLKLSSVTAADTAVYFCARKDAYSDAFNLWGQGTLVTVSS
0.083 nM	0.00014 s⁻¹	1.6e+06 M⁻¹ s⁻¹	2.2 nM	0.0022 s⁻¹	1e+06 M⁻¹ s⁻¹	–	–	–	PRO966 (= PRO1052) (38_27_C05 sc01 scDb-i/33-03-G02 sc01 scDb-o/19-01-H04-sc03 scFv) (other, Trispecific scDb-scFv) DIQMTQSPSSLSASVGDRVTITCQASQSINDYLAWYQQKPGKAPKLLIYKASTLASGVPSRFSGSGSGTDFTLTISSLQPEDFATYYCQQGYIITDIDNVFGTGTKVTVLGGGGGSQVQLQESGPGLVKPSETLSLTCKVSGFSFNNDYDMCWIRQPPGKGLEWIGCIDTGDGSTYYASWAKGRVTISVDSSKNQFSLKLSSVTAADTAVYYCAREAASSSGYGMGYFDLWGQGTLVTVSSGGGGSGGGGSGGGGSGGGGSIQMTQSPSSLSASVGDRVTITCQSSQSVYDNNWLAWYQQKPGKAPKLLIYRASNLASGVPSRFSGSGSGTDFTLTISSLQPEDFATYYCQGTYLSSNWYWAFGTGTKVTVLGGGGGSQVQLQESGPGLVKPSETLSLTCKVSGFSFSSGYDMCWIRQPPGKGLEWIGCVVAGSVDITYYASWAKGRVTISVDSSKNQFSLKLSSVTAADTAVYYCARKDAYSDAFNLWGQGTLVTVSSGGGGSGGGGSIQMTQSPSSLSASVGDRVTITCQSSESVYSNNQLSWYQQKPGQPPKLLIYDASDLASGVPSRFSGSGSGTDFTLTISSLQPEDFATYYCAGGFSSSSDTAFGGGTKLTVLGGGGGSGGGGSGGGGSGGGGSEVQLVESGGGLVQPGGSLRLSCAASGFSLSSNAMGWVRQAPGKGLEYIGIISVGGFTYYASWAKGRFTISRDNSKNTVYLQMNSLRAEDTATYFCARDRHGGDSSGAFYLWGQGTLVTVSS
